Publication PMC6684861 (Traffic (Copenhagen, Denmark), 2018)
No end group written: not given here.

Molecular target: His-tagged murine Importin α1 with the Importin β binding domain (IBB) deleted (ImpαΔIBB) (murine, UniProt P52293 70-529)
Assay: crystal structure

Binding result, binds:
Ac-SHLSPRKKRPRQTGAL [TdT NLS peptide for crystallization, Ac-S7HLSPRKKRPRQTGAL]
Ac-RGILKAFPKRQKIHADASSKVLAKIPRRE [pol λ NLS peptide for crystallization, Ac-R4GILKAFPKRQKIHADASSKVLAKIPRRE]
Ac-LPKRRRARVGSPSGDAASSTPPSTRFPGV [pol μ NLS peptide for crystallization, Ac-L2PKRRRARVGSPSGDAASSTPPSTRFPGV]
